Assay in all cases: pull-down; 1.5 µM GST protein as bait on glutathione resin, 0.25 µM MBP protein as prey; 2 h at 4°C; 10 mM HEPES pH 7.4, 1 mM MgCl2, 1 mg/ml BSA, 1 mM CaCl2 (Ca2+ binding buffer); eluted with glutathione, anti-MBP Western blot, densitometry
Assay [1] addresses GST-ΔW, C2B domain of Synaptotagmin-1 truncated immediately before the WHTL motif (Drosophila) (UniProt P21521).
For assay [2], the target named is GST-C2B, C2B domain of Synaptotagmin-1 (wild type) (Drosophila) (UniProt P21521).
Assay [3] addresses T1, GST-C2B, C2B domain of Synaptotagmin-1 (wild type) (Drosophila, UniProt P21521 323-474).
T1 construct: Synaptotagmin-1 (SYT-1), Drosophila, C2B domain, printed as 'bases 323–474' (read as residues 323-474), from the Drosophila syt cDNA clone, in pGEX-4T-1; also called GST SYT-1 C2B domain; C2B SYT-1; source: E. coli, purified (glutathione resin, washed free of nucleic acids)
The note with it: both partners purified.

Results on four molecules are retold here after publication PMC3373503, “Ca^2+ Regulates the Drosophila Stoned-A and Stoned-B Proteins Interaction with the C2B Domain of Synaptotagmin-1” (PLoS ONE, 2012).

In the case of “MBP-C2B, C2B domain of Synaptotagmin-1 (wild type) (from UniProt P21521 323-474) (domain or fragment)”, in assay [1], the fold binding against binding to GST-C2B worked out at 4 fold.
In assay [2], “MBP-STNA (CCD), coiled-coil domain of Stoned-A (from UniProt Q24211 1-850) (domain or fragment)” displayed a fold binding against binding to GST-C2A of 3 fold and a fold binding in Ca2+ buffer against EGTA buffer of 2.5 fold. The molecule further gave a fold binding against binding to GST-C2B in assay [1] of over 3 fold.
Take “MBP-STNB (MHD), µ-homology domain of Stoned-B (from UniProt Q24212 1-1262) (domain or fragment)”: in assay [2], the fold binding against binding to GST-C2A stood at 4 fold and the fold binding in Ca2+ buffer against EGTA buffer is 4 fold. This molecule also registered a fold binding against binding to GST-C2B in assay [1] of over 5 fold.

B1: MBP-C2B, C2B domain of Synaptotagmin-1 (wild type) (domain or fragment, Drosophila, UniProt P21521 323-474, looked up)
chain: QEKLGDICFSLRYVPTAGKLTVVILEAKNLKKMDVGGLSDPYVKIAIMQNGKRLKKKKTSIKKCTLNPYYNESFSFEVPFEQIQKICLVVTVVDYDRIGTSEPIGRCILGCMGTGTELRHWSDMLASPRRPIAQWHTLKDPEETDEILKNMK
notes: Synaptotagmin-1 (SYT-1), Drosophila, C2B domain; 'the DNA encoding the C2B domain was also inserted into pMAL-c2X'; also called full length MBP-C2B; wild-type MBP-C2B; source: E. coli, purified (amylose resin, washed free of nucleic acids)
As for B1, the binding result in assay [3] is “binds”.
